Legend:
[1] = test system: wild-type E. coli strain (JCL16); assay: isobutanol tolerance of E. coli
From the text: Non-native hosts such as E. coli lack tolerance to high alcohols. Isobutanol is as toxic as 1-butanol to microorganisms, and the native 1-butanol producers can tolerate 1-butanol concentration up to about 2%. To show the potential for improving tolerance, in vitro evolution by the sequential transfer of cultures was used to enrich for strains with mutations which increase isobutanol tolerance. […] Other strategies such as gTME can be used for further improvement of tolerance.

KS145 [2] = assay: 1-Propanol and 1-butanol production with the selected CimA mutants (citramalate pathway); assay type: cell-based, E. coli; settings: 30° C. for 40 h
Procedure: Medium and cultivation for 1-propanol and 1-butanol production. M9 medium containing 36 g/L glucose, 5 g/L yeast extract, 100 μg/ml ampicillin, 30 μg/ml kanamycin and 1000th dilution of Trace Metal Mix A5 (2.86 g H3BO3, 1.81 g MnCl2.4H2O, 0.222 g ZnSO4.7H2O, 0.39 g Na2MoO4.2H2O, 0.079 g CuSO4.5H2O, 49.4 mg Co(NO3)2.6H2O per liter water) was used for cell growth. Preculture in test tubes containing 3 ml of medium was performed at 37° C. overnight on a rotary shaker (250 rpm). Overnight culture was diluted 1:100 into 20 ml of fresh medium in a 250 ml screw cap conical flask. Cells were grown at 37° C. for 3 hr, followed by adding 0.1 mM IPTG. Cultivation was performed at 30° C. on a rotary shaker (250 rpm). Gas chromatography-flame ionization detector and high-performance liquid chromatography analyses were performed.
The citramalate pathway was then used to enhance the production of 1-propanol and 1-butanol (FIG. 13). An E. coli strain (KS145) auxotrophic for L-isoleucine, leucine, and valine (ΔilvI and ΔilvB). was transformed with pSA63 (or other plasmids containing variants of cimA) and pSA55 (PLlacO1::kivd-ADH2). The deletions of ilvI and ilvB (FIG. 13) were introduced for two reasons. First, the deletions eliminated the native substrate, 2-ketoisovalerate, for the leuABCD pathway, thus reducing the competitive substrate inhibition. Second, these deletions eliminated the production of 2-keto-3-methyl-valerate and 2-keto-4-methyl-pentanoate, which are competing substrates for Kivd. The strain expressing the wild-type cimA gene (KS145/pSA63/pSA55) produced 302 mg/liter 1-propanol and 18 mg/liter 1-butanol after 40 h (FIG. 60). KS145 with pSA55 only, where Kivd utilizes endogenous 2-keto acids, produced 40 mg/liter 1-propanol and 10 mg/liter 1-butanol under the same condition. KS145 without pSA55 and pSA63 produced neither 1-propanol nor 1-butanol (FIG. 60). Note that the yeast extract was added to the medium to boost the cell density.
1-Propanol and 1-butanol production was tested with the selected CimA variants in KS145 by replacing pSA63 with corresponding plasmids (Table 19) containing various cimA mutants. […] The production of 1-propanol and 1-butanol from the strain with CimA2 increased 3.9- and 4.3-fold, respectively, compared to the strain with the wild-type CimA.

KS145 [3] = assay: as above; assay type: cell-based, E. coli; settings: ΔilvI ΔilvB strain with pSA63 and pSA55, after 64 hr
JCL260 [4] = assay: α-keto acid production with IPMS variants; assay type: cell-based, E. coli
Procedure: All α-keto acid experiments were done under oxygen ‘rich’ conditions unless otherwise noted. For oxygen rich experiments, 10 mL cultures in 250 mL baffled shake flasks were inoculated 1% from 3 mL overnight cultures in LB. For oxygen poor experiments, 10 mL cultures were inoculated in 125 mL screw caps as previously described. All cultures were grown at 37° C. for 4 hours and induced with 1 mM IPTG and harvested after 18 hrs of growth at 30° C.
For other secreted metabolites, filtered supernatant was applied (20 ul) to an Agilent 1100 HPLC equipped with an auto-sampler (Agilent Technologies) and a BioRad (Biorad Laboratories, Hercules, Calif.) Aminex HPX87 column (5 mM H2SO4, 0.6 ml/min, column temperature at 65° C.). Glucose was detected with a refractive index detector, while organic acids were detected using a photodiode array detector at 210 nm. Concentrations were determined by extrapolation from standard curves.
In order to investigate this hypothesis, the production of the α-keto acid precursors, the substrates for kivd, to isobutanol and 3-methyl-1-butanol were examined. […] In hopes of increasing the KIC pool, the expression level of leuA was increased by changing the RBS from its native sequence to a more consensus sequence.
Isopropylmalate synthase (IPMS) catalyzes the condensation of KIV with acetyl-CoA. […] To relieve the feedback inhibition of the leuA gene product, two strategies were employed. A feedback insensitive mutant of IPMS (IPMS (G462D)) was employed. Second, the final step in the L-leucine synthesis pathway was inactivated by deleting ilvE (branched-chain amino acid transferase) and tyrB (tyrosine aminotransferase), two isozymes responsible for converting α-ketoisocaproate into L-leucine.

JCL260 [5] = assay type: cell-based, E. coli; settings: for 3-methyl-1-butanol final titer / isobutanol accumulation: ilvE+ tyrB+ background
Procedure: Final production experiments were conducted as previously described, except that 20 mL modified M9 media containing 5 g/L of glucose was used in a 250 mL screw cap flask.
Metabolite Detections. The produced alcohol compounds were quantified by a gas chromatograph (GC) equipped with flame ionization detector. The system consisted of model 5890A GC (Hewlett-Packard, Avondale, Pa.) and a model 7673A automatic injector, sampler and controller (Hewlett-Packard). Supernatant of culture broth ([…]) was injected in split injection mode (1:15 split ratio) using methanol as the internal standard.
The separation of alcohol compounds was carried out by A DB-WAX capillary column (30 m, 0.32 mm-i.d., 0.50 μm-film thickness) purchased from Agilent Technologies (Santa. Clara, Calif.). GC oven temperature was initially held at 40° C. for 5 min and raised with a gradient of 15° C./min until 120° C. It was then raised with a gradient 50° C./min until 230° C. and held for 4 min. Helium was used as the carrier gas with 9.3 psi inlet pressure. The injector and detector were maintained at 225° C. 0.5 ul supernatant of culture broth was injected in split injection mode with a 1:15 split ratio. Methanol was used as the internal standard.

[6] = KS145 with pSA55 and pSA63 (cimA-leuABCD) or its variations
[7] = KS145 with pSA55 and pSA63 variations

## CC(C)CO [isobutanol]
[1]
  isobutanol concentration that inhibited the strain: 1.5%
[1]; mutants after 5 rounds of culture transfers with increasing isobutanol concentrations
  isobutanol concentration in the presence of which mutants grow: 2%

B1: WT: wild-type citramalate synthase CimA from M. jannaschii (SEQ ID NO:89) (protein, listed as Methanocaldococcus jannaschii)
chain: MMVRIFDTTLRDGEQTPGVSLTPNDKLEIAKKLDELGVDVIEAGSAITSKGEREGIKLITKEGLNAEICSFVRALPVDIDAALECDVDSVHLVVPTSPIHMKYKLRKTEDEVLETALKAVEYAKEHGLIVELSAEDATRSDVNFLIKLFNEGEKVGADRVCVCDTVGVLTPQKSQELFKKITENVNLPVSVHCHNDFGMATANTCSAVLGGAVQCHVTVNGIGERAGNASLEEVVAALKILYGYDTKIKMEKLYEVSRIVSRLMKLPVPPNKAIVGDNAFAHEAGIHVDGLIKNTETYEPIKPEMVGNRRRIILGKHSGRKALKYKLDLMGINVSDEQLNKIYERVKEFGDLGKYISDADLLAIVREVTGKLVEEKIKLDELTVVSGNKITPIASVKLHYKGEDITLIETAYGVGPVDAAINAVRKAISGVADIKLVEYRVEAIGGGTDALIEVVVKLRKGTEIVEVRKSDADIIRASVDAVMEGINMLLN
KS145 [2]; [6]
  Production of 1-Butanol: 18 mg/L
  Production of 1-Propanol: 302 mg/L
KS145 [2]; [7]
  1-Butanol change (fold) relative to the strain containing wild-type CimA: 1 fold
  1-Propanol change (fold) relative to the strain containing wild-type CimA: 1 fold
KS145 [3]
  1-butanol produced: about 21 mg/L
  1-propanol produced: about 350 mg/L

B2: IPMS (G462D): feedback insensitive mutant of isopropylmalate synthase (leuA gene product) (protein, UniProt P09151 2-523, looked up, variant G462D)
2-isopropylmalate synthase: SQQVIIFDTTLRDGEQALQASLSVKEKLQIALALERMGVDVMEVGFPVSSPGDFESVQTIARQVKNSRVCALARCVEKDIDVAAESLKVAEAFRIHTFIATSPMHIATKLRSTLDEVIERAIYMVKRARNYTDDVEFSCEDAGRTPIADLARVVEAAINAGATTINIPDTVGYTMPFEFAGIISGLYERVPNIDKAIISVHTHDDLGLAVGNSLAAVHAGARQVEGAMNGIGERAGNCSLEEVIMAIKVRKDILNVHTAINHQEIWRTSQLVSQICNMPIPANKAIVGSGAFAHSSGIHQDGVLKNRENYEIMTPESIGLNQIQLNLTSRSGRAAVKHRMDEMGYKESEYNLDNLYDAFLKLADKKGQVFDYDLEALAFIGKQQEEPEHFRLDYFSVQSGSNDIATAAVKLACGEEVKAEAANGNGPVDAVYQAINRITEYNVELVKYSLTAKGHGKDALDQVDIVANYNGRRFHGVGLATDIVESSAKAMVHVLNNIWRAAEVEKELQRKAQHNENNKETV
JCL260 [4]
  KIC final concentration: 1.61 g/L
JCL260 [4]; JCL260 background, ilvE+ tyrB+
  KIV accumulation: 0.17 g/L
JCL260 [4]; ΔilvE background
  KIC production: 2.31 g/L
JCL260 [4]; ΔilvE ΔtyrB background
  KIC production: 1.95 g/L
JCL260 [5]
  3-methyl-1-butanol final titer: 459 mg/L
  isobutanol accumulation: 15 mg/L

B3: WT IPMS: wild-type isopropylmalate synthase, the E. coli leuA gene product (protein, UniProt P09151 2-523, looked up)
2-isopropylmalate synthase: SQQVIIFDTTLRDGEQALQASLSVKEKLQIALALERMGVDVMEVGFPVSSPGDFESVQTIARQVKNSRVCALARCVEKDIDVAAESLKVAEAFRIHTFIATSPMHIATKLRSTLDEVIERAIYMVKRARNYTDDVEFSCEDAGRTPIADLARVVEAAINAGATTINIPDTVGYTMPFEFAGIISGLYERVPNIDKAIISVHTHDDLGLAVGNSLAAVHAGARQVEGAMNGIGERAGNCSLEEVIMAIKVRKDILNVHTAINHQEIWRTSQLVSQICNMPIPANKAIVGSGAFAHSSGIHQDGVLKNRENYEIMTPESIGLNQIQLNLTSRSGRAAVKHRMDEMGYKESEYNLDNLYDAFLKLADKKGQVFDYDLEALAFIGKQQEEPEHFRLDYFSVQSGSNDIATAAVKLACGEEVKAEAANGNGPVDAVYQAINRITEYNVELVKYSLTAKGHGKDALGQVDIVANYNGRRFHGVGLATDIVESSAKAMVHVLNNIWRAAEVEKELQRKAQHNENNKETV
JCL260 [4]; ΔilvE background
  KIC production: 0.53 g/L
  KIV final concentration: 0.40 g/L
JCL260 [4]; ΔilvE ΔtyrB background
  KIC production: 1.23 g/L
  KIV final concentration: 0.37 g/L
JCL260 [5]
  3-methyl-1-butanol final titer: 308 mg/L
  isobutanol accumulation: 169 mg/L
JCL260 [5]; ΔilvE ΔtyrB strain
  3-methyl-1-butanol final concentration: 553 mg/L
  isobutanol: 42 mg/L
